For data set [1], the target named is T1, NF-kB p50 subunit (UniProt P19838 P19838:1-433). The data set is described as follows: footprint; DNase I protection, similar results to phosphorothioate substrate. Conditions: tags: recombinant, Promega; chain copies: 2 inferred. The protocol: (§1) The labeled DNA substrate (50 fmol), poly dI-dC (1 ug, to reduce non-specific protein-DNA interactions) and varying amounts of recombinant NFkβ (p50 subunit) were combined in a 20 uL volume and incubated for 30 min. at room temperature. Dnase 1 (2 Units in a volume of 2 uL, Promega Corp.) was then added and the incubation was continued for an additional 30 min. at room temperature. The reaction was terminated and the biotin-labeled DNA sequences captured by in the addition of 10 µg of streptavidin Dynabeads (IGEN, International) in 0.3 ml PBS-1 containing 0.2 M EDTA, followed by incubation for 15 minutes. The reaction mixture was introduced into an ORIGEN Analyzer (IGEN International) running in Magnetic Capture Mode and the ECL signal from RuBpy on the magnetic beads was determined in the presence of a solution containing tripropylamine (ORIGEN Assay Buffer, IGEN International). A control was also run in the absence of Dnase to determine the ECL signal obtained from the uncleaved substrate. […] The addition of NFkβ gave a dose dependent increase in signal relative to that obtained from unprotected DNA, the magnitude of which approached, for high concentrations of NFkβ, the signal obtained in the absence of DNAse. The experiment was repeated with an DNA substrate with the same nucleotide sequence but containing only phosphodiester linkages and similar results were obtained.

The next data set has as its target AP-2 (UniProt P05549 P05549:1-437). The data set is described as follows: footprint; ECL 32289 vs 54041 unprotected; no DNase protection. As to conditions: chain copies: 2. Here is the method: (§2) The labeled DNA substrate (50 fmol), poly dI-dC (1 ug, to reduce non-specific protein-DNA interactions) and varying amounts of recombinant NFkβ (p50 subunit) were combined in a 20 uL volume and incubated for 30 min. at room temperature. Dnase 1 (2 Units in a volume of 2 uL, Promega Corp.) was then added and the incubation was continued for an additional 30 min. at room temperature. The reaction was terminated and the biotin-labeled DNA sequences captured by in the addition of 10 µg of streptavidin Dynabeads (IGEN, International) in 0.3 ml PBS-1 containing 0.2 M EDTA, followed by incubation for 15 minutes. The reaction mixture was introduced into an ORIGEN Analyzer (IGEN International) running in Magnetic Capture Mode and the ECL signal from RuBpy on the magnetic beads was determined in the presence of a solution containing tripropylamine (ORIGEN Assay Buffer, IGEN International). A control was also run in the absence of Dnase to determine the ECL signal obtained from the uncleaved substrate. […]
(§3) The specificity of the assay was determined by replacing the specific binding protein NFkβ with other DNA binding proteins specific for sequences not present on the DNA substrate (the phosphorothioate containing substrate was used).

The target of data set [2] is T1, NF-kB p50 subunit. The data set is described as follows: footprint; DNase I protection with ECL readout; dose dependent, signal 1729305 at 7 ng vs 96862 unprotected and 2591957 without DNase; poly dI-dC, room temperature. Conditions: tags: recombinant, Promega; chain copies: 2 inferred. Here is the method:
as §1

A further data set addresses SP-1 (UniProt P08047 P08047:2-785). The data set is described as follows: footprint; ECL 38880 vs 54041 unprotected; no DNase protection. The protocol:
as §2, §3

T1 sequence (P19838 1-433, one chain of several): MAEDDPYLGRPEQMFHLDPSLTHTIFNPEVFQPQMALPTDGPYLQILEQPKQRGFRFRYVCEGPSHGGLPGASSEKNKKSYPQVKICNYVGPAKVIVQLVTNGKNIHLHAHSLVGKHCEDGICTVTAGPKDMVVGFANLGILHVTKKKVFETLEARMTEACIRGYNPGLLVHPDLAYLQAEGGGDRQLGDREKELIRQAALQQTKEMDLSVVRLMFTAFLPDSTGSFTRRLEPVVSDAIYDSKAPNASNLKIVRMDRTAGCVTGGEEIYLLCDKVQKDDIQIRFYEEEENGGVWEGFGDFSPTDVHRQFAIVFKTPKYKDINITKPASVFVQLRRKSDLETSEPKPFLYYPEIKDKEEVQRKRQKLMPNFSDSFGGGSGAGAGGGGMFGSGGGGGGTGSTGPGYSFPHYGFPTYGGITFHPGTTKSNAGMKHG
Chain of SP-1 (P08047 2-785, one chain of several): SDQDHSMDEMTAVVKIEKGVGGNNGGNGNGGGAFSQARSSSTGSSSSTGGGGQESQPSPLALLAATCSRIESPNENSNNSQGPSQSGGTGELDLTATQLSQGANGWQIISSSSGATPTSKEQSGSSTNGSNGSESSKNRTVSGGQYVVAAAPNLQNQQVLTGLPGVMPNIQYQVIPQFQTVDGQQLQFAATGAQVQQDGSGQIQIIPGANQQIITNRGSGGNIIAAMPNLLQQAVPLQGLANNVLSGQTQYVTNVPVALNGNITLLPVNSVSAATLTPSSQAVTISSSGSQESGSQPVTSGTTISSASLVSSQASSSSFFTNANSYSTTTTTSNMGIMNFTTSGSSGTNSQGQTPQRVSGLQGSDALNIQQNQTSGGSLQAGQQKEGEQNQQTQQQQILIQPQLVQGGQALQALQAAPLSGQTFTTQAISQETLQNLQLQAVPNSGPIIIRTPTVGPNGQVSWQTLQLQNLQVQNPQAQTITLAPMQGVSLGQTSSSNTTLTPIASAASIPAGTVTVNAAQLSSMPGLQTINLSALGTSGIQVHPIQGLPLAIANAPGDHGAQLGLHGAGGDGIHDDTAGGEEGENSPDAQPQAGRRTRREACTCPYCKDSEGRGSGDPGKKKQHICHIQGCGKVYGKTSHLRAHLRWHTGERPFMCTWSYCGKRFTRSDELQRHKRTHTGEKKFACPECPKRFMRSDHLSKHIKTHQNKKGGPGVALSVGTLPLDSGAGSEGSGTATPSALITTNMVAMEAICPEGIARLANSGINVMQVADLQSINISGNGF
Chain of AP-2 (P05549 whole entry, one chain of several): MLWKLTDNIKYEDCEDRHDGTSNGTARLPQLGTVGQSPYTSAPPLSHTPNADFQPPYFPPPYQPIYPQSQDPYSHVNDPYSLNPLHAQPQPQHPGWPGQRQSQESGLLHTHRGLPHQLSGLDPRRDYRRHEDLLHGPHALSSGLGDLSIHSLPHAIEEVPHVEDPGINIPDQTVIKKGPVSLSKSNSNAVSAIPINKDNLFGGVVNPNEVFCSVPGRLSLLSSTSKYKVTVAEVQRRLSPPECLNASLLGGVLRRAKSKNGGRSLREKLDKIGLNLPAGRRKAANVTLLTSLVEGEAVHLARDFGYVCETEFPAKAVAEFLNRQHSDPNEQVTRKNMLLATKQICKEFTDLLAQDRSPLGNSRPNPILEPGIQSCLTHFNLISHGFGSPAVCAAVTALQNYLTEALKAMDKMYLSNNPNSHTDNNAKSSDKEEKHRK

B1: NF-kB consensus substrate, all phosphodiester (dsDNA)
DNA 1: AGTTGAGGGGACTTTCCCAGGC
DNA 2: GCCTGGGAAAGTCCCCTCAACT
On to B1, for which the binding result in the data set with NF-kB p50 subunit [1] is listed as “binds”.

B2: NF-kB consensus substrate, phosphorothioate (dsDNA)
DNA 1: AGTTGAGGGGACTTTCCCAGGC
DNA 2: GCCTGGGAAAGTCCCCTCAACT
modifications: PS within bracketed nucleotides AGTTGAGG (5') and CCCAGGC (3') of the labelled strand
For B2, the values for the binding result with AP-2, with NF-kB p50 subunit [2] and in the data set with SP-1 were “no binding”, “binds” and “no binding”, respectively.
